Reference: patent US7419669B2, “Peptide epitopes common to antigens of the same multigene family” (Institut Gustave Roussy, priority 2002, dated 2008)
Where no end group is shown, it is not given here.

Tests used:
HLA-A*0201 = molecular target: T1, HLA-A*0201 (Homo sapiens, UniProt P04439, D140Y/D185E/D98H/E176V/E277Q/G131W/G231S/I119V/I121R/I166T/I218V/L300P/L318F/N151K/N90K/P208A/P217A/Q86G/Q94H/R138H/R169H/T345S); test: Relative affinity (RA) of peptides for HLA-A*0201 on T2 cells, flow cytometry with BB7.2; format: binding; conditions: low affinity = RA>5 and DC50<2 hours
T1 construct: prevent the expression at their surface of newly synthesized HLA-A*0201 molecules; endogenous in cells; host or cells: human T2 cells (TAP-deficient)
Procedure: (§1) The affinity of the selected peptides for HLA-A*0201 was defined by two parameters: the relative affinity (RA); which reflects the ability of the peptides to bind to HLA-A*0201, and the rate of dissociation of the HLA-A*0201/peptide complexes (DC50), which reflects their stability. The peptides with high affinity (RA<5 and DC50>2 hours) are potentially immunogenic, unlike the peptides with low affinity (RA>5 and DC50<2 hours).
Human T2 cells (FIRAT et al., Eur. J. Immunol., 29, 3112, 1999) (3×10^5 cells/ml), which are deficient in TAP transporters, are incubated at 37° C. for 16 hours with various concentrations (100 μM, 10 μM, 1 μM, 0.1 μM) of each test peptide in serum-free RPMI 1640 medium supplemented with 100 ng/ml of human β2-microglobulin. Next, they are washed twice and labeled with the monoclonal antibody BB7.2 (PARHAM et al., Hum. Immunol., 3, 4, 277-299, 1981) which is specific for the HLA-A*0201 molecule, and then with a goat anti-mouse Ig antibody coupled to fluorescein isothiocyanate (FITC).
The cells are then analyzed by flow cytometry. For each concentration of peptide, the specific HLA-A*0201 fluorescence is calculated as a percentage of the fluorescence obtained with 100 μM of a reference peptide (HIVpol 589; […] (SEQ ID No: 1)). The relative affinity (RA) is defined as the ratio of the concentration of each peptide that induces 20% of the fluorescence obtained with 100 μM of the reference peptide, to the concentration of the reference peptide that induces 20% of the fluorescence obtained with 100 μM of said reference peptide. The lower the relative affinity, the stronger the binding of the peptide to HLA-A*0201. The mean RA for each peptide is determined from at least three independent experiments. In all the experiments, 20% of the maximum fluorescence was obtained for 1 to 3 μM of the reference peptide.
The relative affinity (RA) of the selected variant peptides for HLA-A*0201 was measured as described in example 1.

[1] = molecular target: T2, HLA-A*0201/peptide complexes (Homo sapiens, UniProt P04439, D140Y/D185E/D98H/E176V/E277Q/G131W/G231S/I119V/I121R/I166T/I218V/L300P/L318F/N151K/N90K/P208A/P217A/Q86G/Q94H/R138H/R169H/T345S); test: Stability of peptide/HLA-A*0201 complexes on T2 cells (DC50); format: binding
T2 construct: prevent the expression at their surface of newly synthesized HLA-A*0201 molecules; endogenous in cells; host or cells: human T2 cells (TAP-deficient)
Procedure: as §1
T2 cells (10^6/ml) are incubated overnight at 37° C. with 100 μM of each test peptide in serum-free RPMI 1640 medium supplemented with 100 ng/ml of human β2-microglobulin. Next, they are washed four times in order to remove the free peptides, incubated with Brefeldin A (SIGMA; 10 μg/ml) for one hour in order to prevent the expression at their surface of newly synthesized HLA-A*0201 molecules, washed and incubated at 37° C. for 0, 2, 4, 6 or 8 hours. For each incubation time, the cells are then labeled, as indicated above, with the BB7.2 antibody, and analyzed by flow cytometry in order to evaluate the amount of peptide/HLA-A*0201 complex present at their surface. This amount is evaluated by means of the formula: (mean fluorescence of the T2 cells preincubated with the peptide−mean fluorescence of the T2 cells treated under similar conditions in the absence of peptide). […]

HHD transgenic mice = test: Induction of specific CTLs in HHD transgenic mice by immunization with variant MAGE-A peptides; 51Cr cytotoxicity on peptide-loaded RMAS-HHD targets; format: in vivo
Procedure: The immunogenicity of the variant peptides p174Y1V10, p262L2 and p248V9 was evaluated by generation of CTLs on HHD transgenic mice (PASCOLO et al., J. Exp. Med., 185, 2043, 1997). These mice are β2m−/−, D^b−/− and express an HLA-A*0201 single chain made up of the α1 and α2 domains of HLA-A*0201 and the α3 and intracellular domains of D^b, linked via its N-terminal to the C-terminal of human β2-microglobulin, via a peptide of 15 amino acids.
The HHD mice are given a subcutaneous injection at the base of the tail with 100 μg of each variant peptide to be tested, emulsified in Freund's incomplete adjuvant, in the presence of 140 μg of a T-helper epitope derived from the HBV “core” antigen (128-140, sequence […]).
After 11 days, spleen cells taken from the mice (5×10^7 cells in 10 ml) are stimulated in vitro with the test peptide (10 μM). On the 6th day of culture, the populations which respond are tested in order to determine a specific cytotoxicity. The cells which respond are restimulated in vitro at one-week intervals with 2×10^7 irradiated (3000 rads) HHD spleen cells and 1 to 0.1 μM of peptide in the presence of 50 IU/ml of recombinant IL2 (Proleukin, Chiron Corp).
Cytotoxicity assays are carried out 6 days after the final stimulation.
RMAS-HHD cells are used as targets to study the cytotoxicity. The cells are obtained by transfection of murine RMAS cells with the HHD construct as described by PASCOLO et al. (J. Exp. Med., 185, 2043, 1997).
These target cells are labeled with 100 μCi of ^51Cr for 90 minutes, and then washed three times and plated out in round-bottomed 96-well plates (3×10^3 cells/well in 100 μl of RPMI 1640+3% of fetal calf serum). They are loaded with various concentrations of test peptide (variant, native peptide, or irrelevant control peptide), at 37° C. for 90 minutes.
Next, 100 μl of the effector cells (effector cell/target cell ratio=40/1) are added to the wells and the plates are incubated at 37° C. for 4 hours. After incubation, 100 μl of supernatant are collected and the radioactivity is measured in a γ-counter.
The percentage of specific lysis is calculated by means of the formula: [(experimental ^51Cr release−spontaneous ^51Cr release)/(maximum ^51Cr release−spontaneous ^51Cr release)]×100. In all the experiments, the spontaneous release is less than 20% of the maximum release induced with 3N HCl.

Sequence	affinity for HLA-A*0201 (in words) (HLA-A*0201)	DC50 (time required for loss of 50% of HLA-A*0201/peptide complexes) ([1]; T2 cells loaded with 100 μM peptide, 37° C., 0-8 hours)	recognition of RMAS-HHD targets loaded with the native peptide by CTLs induced with the corresponding variant (HHD transgenic mice; native peptide loaded on targets)	stability of the complex formed with HLA-A*0201 (in words) [1]	CTL response generated by immunization with the variant peptide (HHD transgenic mice; HHD mice, 100 μg s.c. in Freund's incomplete adjuvant, RMAS-HHD targets, effector/target 40/1)
YEFLWGPRA (listed as Homo sapiens) [p262]	low affinity	<2 h	not		
YLGLSYDGLV (not fully specified) [p174Y1V10]				appears to be insufficient	not capable of generating a CTL response
